Source: patent US20240034792A1 (HARBOUR BIOMED SHANGHAI, published 2024)
Like-named read-outs stand apart in the source and are kept apart here.

Legend:
[1] = biological target: T1, Human PD-1 expressed on CHO-K1 cells (CHO-K1/hPD-1) (human, UniProt Q15116 25-288); experiment: FACS, CHO-K1/hPD-1 cells
T1 construct: whole, on cells; also called CHO-K1 cells overexpressing human PD-1
In short: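 CHO-K1 cells overexpressing human or cynomolgus PD-1 were incubated 1 h at 4 °C with antigen-binding proteins: 8-11 concentrations, 5-fold dilutions, top final 100 nM or 300 nM, hIgG control. Binding was detected with Alexa Fluor 488 anti-human IgG (30 min, 4 °C) and read by flow cytometry.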

[2] = biological target: T1, Human PD-1 expressed on CHO-K1 cells …; experiment: FACS, CHO-K1/hPD-1 cells; remark: listed apart in the source
[3] = biological target: T1, Human PD-1 expressed on CHO-K1 cells …; experiment: FACS, CHO-K1/hPD-1 cells; remark: listed apart in the source
[4] = biological target: T2, Human PD-1 protein with histidine and avi tags (ACRO Biosystems, PD1-H82E4) (human, UniProt Q15116 25-167); experiment: BLI (Octet Red96e), PD-1 captured on SA sensor, 1:1 local fit
T2 construct: Captured on streptavidin (SA) sensors in the BLI assay; not shown: histidine and avi tags
T2 sequence (Q15116 25-167 limits assumed): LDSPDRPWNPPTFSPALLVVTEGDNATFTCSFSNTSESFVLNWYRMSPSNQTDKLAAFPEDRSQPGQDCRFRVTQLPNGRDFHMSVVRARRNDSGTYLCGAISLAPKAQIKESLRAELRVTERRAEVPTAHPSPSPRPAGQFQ
Procedure: Human PD-1 proteins with histidine and avi tags were purchased from the manufacturer ACRO Biosystems (Cat#: PD1-H82E4), and the assay buffer was 1× kinetics buffer (diluted from 10× kinetics buffer (ForteBio, Cat#: 18-1105)) for kinetic assay and dilution of antigens and antibodies. The binding kinetics between the antigen and the antibody was analyzed by the biolayer interferometry (BLI) technique using an Octet molecular interaction analyzer (ForteBio, model: Octet Red96e).
When the binding kinetics between the antigen and the antibody was determined, the rotation speed of the sensor was set at 1000 rpm/min. The eight SA sensors placed in a column were first equilibrated in an assay buffer for 10 min and then used to capture PD-1 at a capture height of 0.5 nm. Thereafter, the SA sensors were equilibrated in the assay buffer for 100 s, and then were associated with each antibody diluted to a single concentration and with a row of blank buffer wells for 180 s, followed by dissociation for 600 s. A new column of SA sensors were used in each cycle.
When data analysis was performed using Octet Data Analysis software (Fortebio, version 11.0), the reference signals were subtracted by a single reference mode (reference well), the data were fitted by a “1:1 Local fitting” method, and the kinetic parameters of the binding of the antigen to the antibody were calculated to obtain kon (1/Ms) values, kdis (1/s) values and KD (M) values.

[5] = biological target: T1, Human PD-1 expressed on CHO-K1 cells …; experiment: FACS blocking of biotin-labeled human PD-L1 binding to CHO-K1-hPD-1 cells

T1 sequence (Q15116 25-288): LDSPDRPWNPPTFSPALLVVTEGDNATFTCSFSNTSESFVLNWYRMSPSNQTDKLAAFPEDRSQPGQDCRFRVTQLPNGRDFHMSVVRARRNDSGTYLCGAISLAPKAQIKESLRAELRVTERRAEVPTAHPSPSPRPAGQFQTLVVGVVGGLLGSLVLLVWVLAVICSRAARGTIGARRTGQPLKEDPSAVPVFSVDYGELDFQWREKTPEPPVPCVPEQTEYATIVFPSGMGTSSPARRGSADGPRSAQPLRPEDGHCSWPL

B1: PR002481 (antibody, human IgG1, V domains shown)
VH: EVQLVETGGGLIQPGGSLRLSCAASGFNVSSHYMSWVRQAPGKGREWVSIIDGGGSTYYADSVKGRFTISRDNSKNRLYLQMNSLRAEDTAMYYCARATAVAEKNGYNYPFNYWGQGTLVTVSS
notes: Heavy-chain-only antibody (HCAb), human IgG1 Fc; two heavy chains, no light chain; also called R4004P556D1; anti-PD1 R4004P556D1 HCAb hG1
EC50 [1]: 8.94 nM
MFI Maximum [1]: 950000
EC50 [2]: 8.18 nM
Maximum (MFI) [2]: 2.75e+06
EC50 [3]: 7.99 nM
Maximum (MFI) [3]: 2.63e+06
Kd [4]: 77 nM
koff [4]: 0.000768 s⁻¹
kon [4]: 9970 M⁻¹ s⁻¹
IC50 [5]: 8.86 nM
Maximum inhibition rate (%) [5]: 103%
